From PMC2711566

T1: recombinant TIP47 (human), O60664
T1 chain: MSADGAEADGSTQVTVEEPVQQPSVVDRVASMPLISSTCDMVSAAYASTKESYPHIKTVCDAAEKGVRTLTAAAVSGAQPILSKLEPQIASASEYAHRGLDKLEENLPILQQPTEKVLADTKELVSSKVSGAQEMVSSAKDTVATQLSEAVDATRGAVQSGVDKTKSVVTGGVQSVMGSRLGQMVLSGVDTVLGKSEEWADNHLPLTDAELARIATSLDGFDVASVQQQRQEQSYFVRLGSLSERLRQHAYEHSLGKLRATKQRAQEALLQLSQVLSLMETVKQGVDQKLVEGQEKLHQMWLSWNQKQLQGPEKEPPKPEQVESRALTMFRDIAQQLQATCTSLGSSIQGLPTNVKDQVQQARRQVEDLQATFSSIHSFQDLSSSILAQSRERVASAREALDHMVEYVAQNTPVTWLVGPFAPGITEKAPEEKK


Experiments:
[1] = molecular target: GST; experiment: native gel or EMSA
[2] = molecular target: T1, recombinant TIP47 (human), O60664; experiment: SEC; settings: remark: other sources report otherwise

GST, sequence (P08515 2-218): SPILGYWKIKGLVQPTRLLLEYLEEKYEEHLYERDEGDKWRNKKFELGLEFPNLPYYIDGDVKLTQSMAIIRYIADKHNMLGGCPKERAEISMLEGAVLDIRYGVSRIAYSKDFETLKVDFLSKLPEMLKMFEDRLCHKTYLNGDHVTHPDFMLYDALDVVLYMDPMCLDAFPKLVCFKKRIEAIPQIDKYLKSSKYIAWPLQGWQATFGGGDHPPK

stoichiometry N [2] | Molecule | stoichiometry N [1]
– | GST (natural protein) | 2
3 | recombinant TIP47, O60664 1-434 (natural protein) MSADGAEADGSTQVTVEEPVQQPSVVDRVASMPLISSTCDMVSAAYASTKESYPHIKTVCDAAEKGVRTLTAAAVSGAQPILSKLEPQIASASEYAHRGLDKLEENLPILQQPTEKVLADTKELVSSKVSGAQEMVSSAKDTVATQLSEAVDATRGAVQSGVDKTKSVVTGGVQSVMGSRLGQMVLSGVDTVLGKSEEWADNHLPLTDAELARIATSLDGFDVASVQQQRQEQSYFVRLGSLSERLRQHAYEHSLGKLRATKQRAQEALLQLSQVLSLMETVKQGVDQKLVEGQEKLHQMWLSWNQKQLQGPEKEPPKPEQVESRALTMFRDIAQQLQATCTSLGSSIQGLPTNVKDQVQQARRQVEDLQATFSSIHSFQDLSSSILAQSRERVASAREALDHMVEYVAQNTPVTWLVGPFAPGITEKAPEEKK | –
